T1: APBA2_2, Q99767
T1 sequence (Q99767 654-744, limits assumed, looked up): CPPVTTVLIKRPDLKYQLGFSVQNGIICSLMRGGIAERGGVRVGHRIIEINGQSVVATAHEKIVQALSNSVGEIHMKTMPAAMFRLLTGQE

T2: GRIP1_3, Q9Y3R0
T2 sequence (Q9Y3R0 247-346, limits assumed, looked up): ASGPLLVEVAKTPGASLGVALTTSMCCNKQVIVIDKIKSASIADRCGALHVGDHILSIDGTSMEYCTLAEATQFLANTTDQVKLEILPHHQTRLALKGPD

T3: HTRA4, P83105
T3 sequence (P83105 378-476, limits assumed, looked up): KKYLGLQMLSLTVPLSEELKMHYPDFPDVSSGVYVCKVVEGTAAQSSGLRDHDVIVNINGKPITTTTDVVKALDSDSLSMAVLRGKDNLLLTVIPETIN

T4: LNX2_3, Q8N448
T4 sequence (Q8N448 463-564, limits assumed, looked up): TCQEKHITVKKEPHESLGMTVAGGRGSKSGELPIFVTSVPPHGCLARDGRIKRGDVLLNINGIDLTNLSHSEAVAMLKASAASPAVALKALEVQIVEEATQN

T5: LRRC7, Q96NW7
T5 sequence (Q96NW7 1440-1537, limits assumed, looked up): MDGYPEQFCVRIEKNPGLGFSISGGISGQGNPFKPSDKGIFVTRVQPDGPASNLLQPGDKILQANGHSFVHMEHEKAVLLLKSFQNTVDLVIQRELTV

T6: MPDZ_5, O75970
T6 sequence (O75970 695-796, limits assumed, looked up): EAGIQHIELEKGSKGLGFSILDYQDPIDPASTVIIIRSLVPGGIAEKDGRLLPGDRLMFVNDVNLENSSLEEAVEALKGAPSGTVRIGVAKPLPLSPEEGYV

T7: MPP6, Q9NZW5
T7 sequence (Q9NZW5 125-219, limits assumed, looked up): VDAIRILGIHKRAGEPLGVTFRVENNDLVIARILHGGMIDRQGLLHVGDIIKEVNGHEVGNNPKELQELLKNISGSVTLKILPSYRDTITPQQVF

T8: RAPGEF6, Q8TEU7
T8 sequence (Q8TEU7 525-625, limits assumed, looked up): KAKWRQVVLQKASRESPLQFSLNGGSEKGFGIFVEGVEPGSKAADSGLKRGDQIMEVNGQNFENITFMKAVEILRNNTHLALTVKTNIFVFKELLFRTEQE

T9: SIPA1L2, Q9P2F8
T9 sequence (Q9P2F8 945-1036, limits assumed, looked up): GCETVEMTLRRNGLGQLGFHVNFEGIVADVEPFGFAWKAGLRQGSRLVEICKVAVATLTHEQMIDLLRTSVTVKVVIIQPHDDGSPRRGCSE

T10: SNTB1, Q13884
T10 sequence (Q13884 107-205, limits assumed, looked up): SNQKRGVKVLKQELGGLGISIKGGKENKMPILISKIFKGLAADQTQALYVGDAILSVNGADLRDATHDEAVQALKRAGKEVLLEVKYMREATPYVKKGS

T11: TIAM2, Q8IVF5
T11 sequence (Q8IVF5 885-986, limits assumed, looked up): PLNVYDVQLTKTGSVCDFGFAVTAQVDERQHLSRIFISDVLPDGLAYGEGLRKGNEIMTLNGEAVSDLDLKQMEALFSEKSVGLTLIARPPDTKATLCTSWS


Legend:
Experiment in all cases: holdup assay
Design in all cases: key: below the threshold = too weak to quantify, mostly under pKd 3.1 to 4
Settings in all cases: plain residues with an end cap or a label only (N-terminal biotin on a linker: ado-ado)
[1] = biological target: T1, APBA2_2, Q99767
[2] = biological target: DLG1_1, Q12959
[3] = biological target: DLG4_1, P78352
[4] = biological target: DLG4_3, P78352
[5] = biological target: FRMPD2_1, Q68DX3
[6] = biological target: FRMPD2_2, Q68DX3
[7] = biological target: T2, GRIP1_3, Q9Y3R0
[8] = biological target: GRIP2_5, Q9C0E4
[9] = biological target: HTRA1, Q92743
[10] = biological target: T3, HTRA4, P83105
[11] = biological target: IL16_1, Q14005
[12] = biological target: LDB3, O75112
[13] = biological target: T4, LNX2_3, Q8N448
[14] = biological target: T5, LRRC7, Q96NW7
[15] = biological target: MAGI2_2, Q86UL8
[16] = biological target: MAGI2_3, Q86UL8
[17] = biological target: MAST1, Q9Y2H9
[18] = biological target: T6, MPDZ_5, O75970
[19] = biological target: T7, MPP6, Q9NZW5
[20] = biological target: NHERF2_2, Q15599
[21] = biological target: PDLIM1, O00151
[22] = biological target: PICK1, Q9NRD5
[23] = biological target: PTPN3, P26045
[24] = biological target: T8, RAPGEF6, Q8TEU7
[25] = biological target: T9, SIPA1L2, Q9P2F8
[26] = biological target: T10, SNTB1, Q13884
[27] = biological target: T11, TIAM2, Q8IVF5

FRMPD2_1, Q68DX3, sequence (Q68DX3 770-861): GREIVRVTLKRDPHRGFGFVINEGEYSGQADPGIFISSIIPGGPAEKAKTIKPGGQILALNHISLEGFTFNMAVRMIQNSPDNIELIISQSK
NHERF2_2, Q15599, sequence (Q15599 142-238): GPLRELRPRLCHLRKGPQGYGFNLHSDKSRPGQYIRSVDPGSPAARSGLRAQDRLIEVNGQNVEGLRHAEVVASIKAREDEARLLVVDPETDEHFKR
DLG4_3, P78352, sequence (P78352 306-403): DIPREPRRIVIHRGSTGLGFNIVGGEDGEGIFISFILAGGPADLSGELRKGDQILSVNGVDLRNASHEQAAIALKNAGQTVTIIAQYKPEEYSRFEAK
MAGI2_2, Q86UL8, sequence (Q86UL8 410-522): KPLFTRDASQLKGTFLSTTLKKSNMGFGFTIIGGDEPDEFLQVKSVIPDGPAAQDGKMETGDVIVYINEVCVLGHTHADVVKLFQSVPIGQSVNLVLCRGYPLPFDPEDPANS
PTPN3, P26045, sequence (P26045 505-587): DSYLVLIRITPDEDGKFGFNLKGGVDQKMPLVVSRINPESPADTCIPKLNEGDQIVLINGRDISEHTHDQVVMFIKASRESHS
IL16_1, Q14005, sequence (Q14005 210-306): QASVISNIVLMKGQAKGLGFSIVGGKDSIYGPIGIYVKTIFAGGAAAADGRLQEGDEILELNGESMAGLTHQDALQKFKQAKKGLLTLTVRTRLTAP
FRMPD2_2, Q68DX3, sequence (Q68DX3 944-1038): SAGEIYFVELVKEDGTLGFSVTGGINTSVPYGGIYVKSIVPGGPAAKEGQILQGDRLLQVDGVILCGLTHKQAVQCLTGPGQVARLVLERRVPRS
LDB3, O75112, sequence (O75112 1-94): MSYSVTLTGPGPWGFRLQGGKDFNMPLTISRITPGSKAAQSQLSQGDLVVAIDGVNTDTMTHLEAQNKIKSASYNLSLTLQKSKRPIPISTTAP
MAST1, Q9Y2H9, sequence (Q9Y2H9 962-1065): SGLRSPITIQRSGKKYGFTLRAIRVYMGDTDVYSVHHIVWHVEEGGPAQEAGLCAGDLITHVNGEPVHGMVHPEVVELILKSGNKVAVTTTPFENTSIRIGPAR
HTRA1, Q92743, sequence (Q92743 360-477): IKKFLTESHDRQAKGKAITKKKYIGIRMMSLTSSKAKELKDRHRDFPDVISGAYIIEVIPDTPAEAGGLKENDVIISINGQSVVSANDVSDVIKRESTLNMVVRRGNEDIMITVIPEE
DLG4_1, P78352, sequence (P78352 62-152): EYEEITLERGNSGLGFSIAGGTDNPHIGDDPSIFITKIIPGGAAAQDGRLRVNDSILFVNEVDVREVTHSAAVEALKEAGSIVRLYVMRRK
PDLIM1, O00151, sequence (O00151 1-87): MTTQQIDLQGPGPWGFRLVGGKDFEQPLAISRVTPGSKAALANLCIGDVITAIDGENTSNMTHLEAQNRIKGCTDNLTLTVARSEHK
GRIP2_5, Q9C0E4, sequence (Q9C0E4 544-642): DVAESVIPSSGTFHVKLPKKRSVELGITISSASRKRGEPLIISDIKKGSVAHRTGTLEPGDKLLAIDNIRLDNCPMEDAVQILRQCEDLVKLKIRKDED
MAGI2_3, Q86UL8, sequence (Q86UL8 600-682): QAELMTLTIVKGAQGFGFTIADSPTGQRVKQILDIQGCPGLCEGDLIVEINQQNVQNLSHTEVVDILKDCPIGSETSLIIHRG
PICK1, Q9NRD5, sequence (Q9NRD5 17-115): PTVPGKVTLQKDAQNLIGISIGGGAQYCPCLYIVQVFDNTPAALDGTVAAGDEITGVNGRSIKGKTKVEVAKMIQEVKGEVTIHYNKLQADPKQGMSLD

| Binder | pKd [1] | pKd [2] | pKd [3] | pKd [4] | pKd [5] | pKd [6] | pKd [7] | pKd [8] | pKd [9] | pKd [10] | pKd [11] | pKd [12] | pKd [13] | pKd [14] | pKd [15] | pKd [16] | pKd [17] | pKd [18] | pKd [19] | pKd [20] | also measured |
| --- | --- | --- | --- | --- | --- | --- | --- | --- | --- | --- | --- | --- | --- | --- | --- | --- | --- | --- | --- | --- | --- |
| QYPGSPDSWV [PKP4, Q99569] | below the threshold | 3.96 | 4.26 | below the threshold | below the threshold | 4.34 | below the threshold | 3.58 | 4.78 | 3.48 | 4.13 | 3.82 | below the threshold | 4.97 | below the threshold | below the threshold | 3.97 | 3.58 | below the threshold | below the threshold | pKd [21]: 4.14; pKd [22]: below the threshold; pKd [23]: 4.96; pKd [24]: below the threshold; pKd [25]: below the threshold; pKd [26]: 4.36; pKd [27]: below the threshold |
| DFRHKSSFVI [JAM3, Q9BX67] | below the threshold | below the threshold | below the threshold | below the threshold | below the threshold | below the threshold | below the threshold | below the threshold | 4.64 | below the threshold | below the threshold | 3.76 | below the threshold | below the threshold | below the threshold | below the threshold | below the threshold | below the threshold | 3.62 | below the threshold | pKd [21]: below the threshold; pKd [22]: below the threshold; pKd [23]: 3.84; pKd [24]: below the threshold; pKd [25]: below the threshold; pKd [26]: below the threshold; pKd [27]: 4.02 |
| GQETPLNTFC [MAP7D2, Q96T17] | below the threshold | below the threshold | below the threshold | 3.6 | below the threshold | below the threshold | below the threshold | below the threshold | 3.79 | below the threshold | below the threshold | below the threshold | below the threshold | below the threshold | below the threshold | below the threshold | 3.79 | below the threshold | 3.62 | 3.94 | pKd [21]: below the threshold; pKd [22]: below the threshold; pKd [23]: 4.38; pKd [24]: below the threshold; pKd [25]: below the threshold; pKd [26]: below the threshold; pKd [27]: 3.62 |
